Substrate in this data set: Cc1ccco1
It is filed as in vitro ADME, human.

Where two headings read alike, the source gives them in different places.

B1: CYP 2E1 (Homo sapiens) (protein)
chain: MSALGVTVALLVWAAFLLLVSMWRQVHSSWNLPPGPFPLPIIGNLFQLELKNIPKSFTRLAQRFGPVFTLYVGSQRMVVMHGYKAVKEALLDYKDEFSGRGDLPAFHAHRDRGIIFNNGPTWKDIRRFSLTTLRNYGMGKQGNESRIQREAHFLLEALRKTQGQPFDPTFLIGCAPCNVIADILFRKHFDYNDEKFLRLMYLFNENFHLLSTPWLQLYNNFPSFLHYLPGSHRKVIKNVAEVKEYVSERVKEHHQSLDPNCPRDLTDCLLVEMEKEKHSAERLYTMDGITVTVADLFFAGTETTSTTLRYGLLILMKYPEIEEKLHEEIDRVIGPSRIPAIKDRQEMPYMDAVVHEIQRFITLVPSNLPHEATRDTIFRGYLIPKGTVVVPTLDSVLYDNQEFPDPEKFKPEHFLNENGKFKYSDYFKPFSTGKRVCAGEGLARMELFLLLCAILQHFNLKPLVDPKDIDLSPIHIGFGCIPPRYKLCVIPRS
As to B1, the Michaelis-Menten constant (Km) (as a rule, the substrate concentration at which the rate is half of its maximum) reads like this: (other: CYP 2E1; I) high substrate concentrations) “I) 1966.76; II) 23.29 μM”; (other: CYP 2E1; II) low substrate concentrations) 23.3 µM.

(Values after PMC11577422.)
